Assay [1] deals with T1, recombinant human PD-1 His tag protein (Homo sapiens, UniProt Q15116).
T1 construct: human programmed cell death protein 1 (PD-1), recombinant, His tag; as recalled the catalogue product is the extracellular domain of PD-1 with a C-terminal His tag; also called programmed cell death protein 1; source: bought: R&D Systems (8986-PD)
As to the kind of experiment: SPR; Biacore T200, antibody (3 ug/ml) captured on protein G sensor chip in HBS-EP; single-cycle kinetics with human PD-1 His tag at 10, 20, 40, 80 and 160 nM, 30 ul/min, 60 s association, 120 s dissociation; Langmuir 1:1 model. The settings on record: both partners purified. (In general: SPR reads the build-up and loss of mass on a sensor chip optically.)
T1 sequence (Q15116 25-170): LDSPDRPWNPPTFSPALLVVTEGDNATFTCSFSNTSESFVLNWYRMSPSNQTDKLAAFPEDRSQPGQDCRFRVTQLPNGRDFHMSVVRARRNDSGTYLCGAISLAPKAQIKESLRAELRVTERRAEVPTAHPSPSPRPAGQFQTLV

In assay [2] the target is T1, recombinant human PD-1 His tag protein. Nature of the assay: cell-based or functional assay.
For assay [3], the target named is T2, recombinant human PD-1 His tag protein (Homo sapiens, UniProt Q15116).
T2 construct: programmed cell death protein 1 (PD-1), human; recombinant, R&D Systems 8986-PD; also called programmed cell death protein 1; source: bought: R&D Systems
As to the kind of experiment: SPR; Biacore T200; antibodies (3 ug/ml in HBS-EP) captured on a protein G sensor chip; human PD-1 His tag injected at 10, 20, 40, 80 and 160 nM, single-cycle kinetics, 30 ul/min, 60 s association, 120 s dissociation; Langmuir 1:1 model. The settings on record: both partners purified.
T2 sequence (Q15116 25-170): as above

B1: plant-produced Pembrolizumab (antibody, V domains shown)
VH: QVQLVQSGVEVKKPGASVKVSCKASGYTFTNYYMYWVRQAPGQGLEWMGGINPSNGGTNFNEKFKNRVTLTTDSSTTTAYMELKSLQFDDTAVYYCARRDYRFDMGFDYWGQGTTVTVSS
VL: EIVLTQSPATLSLSPGERATLSCRASKGVSTSGYSYLHWYQQKPGQAPRLLIYLASYLESGVPARFSGSGSGTDFTLTISSLEPEDFAVYYCQHSRDLPLTFGGGTKVEIK
notes: Pembrolizumab heavy chain; DrugBank DB09037; Pembrolizumab light chain (kappa); IgG4 kappa antibody; assembled as full IgG (150 kDa) by non-reducing SDS-PAGE and SEC; also called Pem WT; anti-human PD-1 monoclonal antibody produced in Nicotiana benthamiana; copies: 2 + 2
As usually defined, the Kd is the equilibrium constant for the complex coming apart. Turning to B1, the Kd in assay [1] is 8.51 nM. Besides, the “PD-1/PD-L1 blockade bioassay (luciferase reporter; Jurkat/PD-1 effector cells with CHO-K1/PD-L1 cells, 6 h); EC50 of blocking PD-1 with PD-L1” value in assay [2] worked out at 0.147 µg/mL.

B2: commercial Pembrolizumab (Keytruda) (antibody, V domains shown)
VH: QVQLVQSGVEVKKPGASVKVSCKASGYTFTNYYMYWVRQAPGQGLEWMGGINPSNGGTNFNEKFKNRVTLTTDSSTTTAYMELKSLQFDDTAVYYCARRDYRFDMGFDYWGQGTTVTVSS
VL: EIVLTQSPATLSLSPGERATLSCRASKGVSTSGYSYLHWYQQKPGQAPRLLIYLASYLESGVPARFSGSGSGTDFTLTISSLEPEDFAVYYCQHSRDLPLTFGGGTKVEIK
notes: Pembrolizumab heavy chain; as the heavy chain of Wm1 without the C-terminal SEKDEL; Pembrolizumab light chain; as the light chain of Wm1; The commercial drug; also called mammalian cell-produced Pembrolizumab; source: bought: commercial Pembrolizumab (Keytruda), mammalian cell-produced
A word on the koff: it is the rate constant with which the complex falls apart. In general, kon refers to the rate constant with which the complex forms. Consider B2, for which, in assay [3], the koff is 0.00339 s⁻¹ and the kon is 410000 M⁻¹ s⁻¹.

B3: Keytruda (mammalian cell-produced commercial Pembrolizumab) (antibody, V domains shown)
VH: QVQLVQSGVEVKKPGASVKVSCKASGYTFTNYYMYWVRQAPGQGLEWMGGINPSNGGTNFNEKFKNRVTLTTDSSTTTAYMELKSLQFDDTAVYYCARRDYRFDMGFDYWGQGTTVTVSS
VL: EIVLTQSPATLSLSPGERATLSCRASKGVSTSGYSYLHWYQQKPGQAPRLLIYLASYLESGVPARFSGSGSGTDFTLTISSLEPEDFAVYYCQHSRDLPLTFGGGTKVEIK
notes: Pembrolizumab heavy chain; as the heavy chain of m1 without the C-terminal SEKDEL; DrugBank DB09037; Pembrolizumab light chain; as the light chain of m1; Commercial drug product used as the positive control and comparator; source: bought: commercial Keytruda, mammalian cell-produced
For B3, the Kd in assay [1] was found to be 8.26 nM. Also, the “PD-1/PD-L1 blockade bioassay (luciferase reporter; Jurkat/PD-1 effector cells with CHO-K1/PD-L1 cells, 6 h); EC50 of blocking PD-1 with PD-L1” value in assay [2] worked out at 0.147 µg/mL.
